koff data for 22 molecules are collected here from patent publication US20240209076A1 (KODIAK SCIENCES, published 2024).

B1: anti-IL-6 Fab, heavy chain W57F (Fab, V domains shown)
VH: EVQLVESGGGLVQPGGSLRLSCAASGFTFSPFAMSWVRQAPGKGLEWVAKISPGGSFTYYSDTVTGRFTFSLDTSKSTAYLQMNSLRAEDTAVYYCARQLWGYYALDIWGQGTLVTVSS
VL: DIQLTQSPSSLSASVGDRVTITCSASISVSYMYWYQQKPGKAPKLLIYDMSNLASGVPSRFSGSGSGTDFTLTISSLQPEDFATYYCMQWSGYPYTFGQGTKVEIK
notes: see m39
B2: anti-IL-6 Fab, light chain A54Y (Fab, V domains shown)
VH: EVQLVESGGGLVQPGGSLRLSCAASGFTFSPFAMSWVRQAPGKGLEWVAKISPGGSWTYYSDTVTGRFTFSLDTSKSTAYLQMNSLRAEDTAVYYCARQLWGYYALDIWGQGTLVTVSS
VL: DIQLTQSPSSLSASVGDRVTITCSASISVSYMYWYQQKPGKAPKLLIYDMSNLYSGVPSRFSGSGSGTDFTLTISSLQPEDFATYYCMQWSGYPYTFGQGTKVEIK
notes: see m39
B3: anti-IL-6 Fab, light chain M88A (Fab, V domains shown)
VH: EVQLVESGGGLVQPGGSLRLSCAASGFTFSPFAMSWVRQAPGKGLEWVAKISPGGSWTYYSDTVTGRFTFSLDTSKSTAYLQMNSLRAEDTAVYYCARQLWGYYALDIWGQGTLVTVSS
VL: DIQLTQSPSSLSASVGDRVTITCSASISVSYMYWYQQKPGKAPKLLIYDMSNLASGVPSRFSGSGSGTDFTLTISSLQPEDFATYYCAQWSGYPYTFGQGTKVEIK
notes: see m39
B4: anti-IL-6 Fab, light chain L53R (Fab, V domains shown)
VH: EVQLVESGGGLVQPGGSLRLSCAASGFTFSPFAMSWVRQAPGKGLEWVAKISPGGSWTYYSDTVTGRFTFSLDTSKSTAYLQMNSLRAEDTAVYYCARQLWGYYALDIWGQGTLVTVSS
VL: DIQLTQSPSSLSASVGDRVTITCSASISVSYMYWYQQKPGKAPKLLIYDMSNRASGVPSRFSGSGSGTDFTLTISSLQPEDFATYYCMQWSGYPYTFGQGTKVEIK
notes: see m39
B5: anti-IL-6 Fab, light chain A54L (Fab, V domains shown)
VH: EVQLVESGGGLVQPGGSLRLSCAASGFTFSPFAMSWVRQAPGKGLEWVAKISPGGSWTYYSDTVTGRFTFSLDTSKSTAYLQMNSLRAEDTAVYYCARQLWGYYALDIWGQGTLVTVSS
VL: DIQLTQSPSSLSASVGDRVTITCSASISVSYMYWYQQKPGKAPKLLIYDMSNLLSGVPSRFSGSGSGTDFTLTISSLQPEDFATYYCMQWSGYPYTFGQGTKVEIK
notes: see m39
B6: anti-IL-6 Fab, light chain A54G (Fab, V domains shown)
VH: EVQLVESGGGLVQPGGSLRLSCAASGFTFSPFAMSWVRQAPGKGLEWVAKISPGGSWTYYSDTVTGRFTFSLDTSKSTAYLQMNSLRAEDTAVYYCARQLWGYYALDIWGQGTLVTVSS
VL: DIQLTQSPSSLSASVGDRVTITCSASISVSYMYWYQQKPGKAPKLLIYDMSNLGSGVPSRFSGSGSGTDFTLTISSLQPEDFATYYCMQWSGYPYTFGQGTKVEIK
notes: see m39
B7: anti-IL-6 Fab, light chain I27L (Fab, V domains shown)
VH: EVQLVESGGGLVQPGGSLRLSCAASGFTFSPFAMSWVRQAPGKGLEWVAKISPGGSWTYYSDTVTGRFTFSLDTSKSTAYLQMNSLRAEDTAVYYCARQLWGYYALDIWGQGTLVTVSS
VL: DIQLTQSPSSLSASVGDRVTITCSASLSVSYMYWYQQKPGKAPKLLIYDMSNLASGVPSRFSGSGSGTDFTLTISSLQPEDFATYYCMQWSGYPYTFGQGTKVEIK
notes: see m39
B8: anti-IL-6 Fab, light chain N52S (Fab, V domains shown)
VH: EVQLVESGGGLVQPGGSLRLSCAASGFTFSPFAMSWVRQAPGKGLEWVAKISPGGSWTYYSDTVTGRFTFSLDTSKSTAYLQMNSLRAEDTAVYYCARQLWGYYALDIWGQGTLVTVSS
VL: DIQLTQSPSSLSASVGDRVTITCSASISVSYMYWYQQKPGKAPKLLIYDMSSLASGVPSRFSGSGSGTDFTLTISSLQPEDFATYYCMQWSGYPYTFGQGTKVEIK
notes: see m39
B9: anti-IL-6 Fab, light chain I47V (Fab, V domains shown)
VH: EVQLVESGGGLVQPGGSLRLSCAASGFTFSPFAMSWVRQAPGKGLEWVAKISPGGSWTYYSDTVTGRFTFSLDTSKSTAYLQMNSLRAEDTAVYYCARQLWGYYALDIWGQGTLVTVSS
VL: DIQLTQSPSSLSASVGDRVTITCSASISVSYMYWYQQKPGKAPKLLVYDMSNLASGVPSRFSGSGSGTDFTLTISSLQPEDFATYYCMQWSGYPYTFGQGTKVEIK
notes: see m39
B10: anti-IL-6 Fab, light chain M32L (Fab, V domains shown)
VH: EVQLVESGGGLVQPGGSLRLSCAASGFTFSPFAMSWVRQAPGKGLEWVAKISPGGSWTYYSDTVTGRFTFSLDTSKSTAYLQMNSLRAEDTAVYYCARQLWGYYALDIWGQGTLVTVSS
VL: DIQLTQSPSSLSASVGDRVTITCSASISVSYLYWYQQKPGKAPKLLIYDMSNLASGVPSRFSGSGSGTDFTLTISSLQPEDFATYYCMQWSGYPYTFGQGTKVEIK
notes: see m39
B11: anti-IL-6 Fab, light chain M50D (Fab, V domains shown)
VH: EVQLVESGGGLVQPGGSLRLSCAASGFTFSPFAMSWVRQAPGKGLEWVAKISPGGSWTYYSDTVTGRFTFSLDTSKSTAYLQMNSLRAEDTAVYYCARQLWGYYALDIWGQGTLVTVSS
VL: DIQLTQSPSSLSASVGDRVTITCSASISVSYMYWYQQKPGKAPKLLIYDDSNLASGVPSRFSGSGSGTDFTLTISSLQPEDFATYYCMQWSGYPYTFGQGTKVEIK
notes: see m39
B12: anti-IL-6 Fab, light chain M32V (Fab, V domains shown)
VH: EVQLVESGGGLVQPGGSLRLSCAASGFTFSPFAMSWVRQAPGKGLEWVAKISPGGSWTYYSDTVTGRFTFSLDTSKSTAYLQMNSLRAEDTAVYYCARQLWGYYALDIWGQGTLVTVSS
VL: DIQLTQSPSSLSASVGDRVTITCSASISVSYVYWYQQKPGKAPKLLIYDMSNLASGVPSRFSGSGSGTDFTLTISSLQPEDFATYYCMQWSGYPYTFGQGTKVEIK
notes: see m39
B13: anti-IL-6 Fab, light chain M88V (Fab, V domains shown)
VH: EVQLVESGGGLVQPGGSLRLSCAASGFTFSPFAMSWVRQAPGKGLEWVAKISPGGSWTYYSDTVTGRFTFSLDTSKSTAYLQMNSLRAEDTAVYYCARQLWGYYALDIWGQGTLVTVSS
VL: DIQLTQSPSSLSASVGDRVTITCSASISVSYMYWYQQKPGKAPKLLIYDMSNLASGVPSRFSGSGSGTDFTLTISSLQPEDFATYYCVQWSGYPYTFGQGTKVEIK
notes: see m39
B14: anti-IL-6 Fab, light chain L46V (Fab, V domains shown)
VH: EVQLVESGGGLVQPGGSLRLSCAASGFTFSPFAMSWVRQAPGKGLEWVAKISPGGSWTYYSDTVTGRFTFSLDTSKSTAYLQMNSLRAEDTAVYYCARQLWGYYALDIWGQGTLVTVSS
VL: DIQLTQSPSSLSASVGDRVTITCSASISVSYMYWYQQKPGKAPKLVIYDMSNLASGVPSRFSGSGSGTDFTLTISSLQPEDFATYYCMQWSGYPYTFGQGTKVEIK
notes: see m39
B15: anti-IL-6 Fab, light chain A25T (Fab, V domains shown)
VH: EVQLVESGGGLVQPGGSLRLSCAASGFTFSPFAMSWVRQAPGKGLEWVAKISPGGSWTYYSDTVTGRFTFSLDTSKSTAYLQMNSLRAEDTAVYYCARQLWGYYALDIWGQGTLVTVSS
VL: DIQLTQSPSSLSASVGDRVTITCSTSISVSYMYWYQQKPGKAPKLLIYDMSNLASGVPSRFSGSGSGTDFTLTISSLQPEDFATYYCMQWSGYPYTFGQGTKVEIK
notes: see m39
B16: anti-IL-6 Fab, light chain A25S (Fab, V domains shown)
VH: EVQLVESGGGLVQPGGSLRLSCAASGFTFSPFAMSWVRQAPGKGLEWVAKISPGGSWTYYSDTVTGRFTFSLDTSKSTAYLQMNSLRAEDTAVYYCARQLWGYYALDIWGQGTLVTVSS
VL: DIQLTQSPSSLSASVGDRVTITCSSSISVSYMYWYQQKPGKAPKLLIYDMSNLASGVPSRFSGSGSGTDFTLTISSLQPEDFATYYCMQWSGYPYTFGQGTKVEIK
notes: see m39
B17: anti-IL-6 Fab, light chain L53H (Fab, V domains shown)
VH: EVQLVESGGGLVQPGGSLRLSCAASGFTFSPFAMSWVRQAPGKGLEWVAKISPGGSWTYYSDTVTGRFTFSLDTSKSTAYLQMNSLRAEDTAVYYCARQLWGYYALDIWGQGTLVTVSS
VL: DIQLTQSPSSLSASVGDRVTITCSASISVSYMYWYQQKPGKAPKLLIYDMSNHASGVPSRFSGSGSGTDFTLTISSLQPEDFATYYCMQWSGYPYTFGQGTKVEIK
notes: see m39
B18: anti-IL-6 Fab, light chain I27F (Fab, V domains shown)
VH: EVQLVESGGGLVQPGGSLRLSCAASGFTFSPFAMSWVRQAPGKGLEWVAKISPGGSWTYYSDTVTGRFTFSLDTSKSTAYLQMNSLRAEDTAVYYCARQLWGYYALDIWGQGTLVTVSS
VL: DIQLTQSPSSLSASVGDRVTITCSASFSVSYMYWYQQKPGKAPKLLIYDMSNLASGVPSRFSGSGSGTDFTLTISSLQPEDFATYYCMQWSGYPYTFGQGTKVEIK
notes: see m39
B19: anti-IL-6 Fab, light chain D49E (Fab, V domains shown)
VH: EVQLVESGGGLVQPGGSLRLSCAASGFTFSPFAMSWVRQAPGKGLEWVAKISPGGSWTYYSDTVTGRFTFSLDTSKSTAYLQMNSLRAEDTAVYYCARQLWGYYALDIWGQGTLVTVSS
VL: DIQLTQSPSSLSASVGDRVTITCSASISVSYMYWYQQKPGKAPKLLIYEMSNLASGVPSRFSGSGSGTDFTLTISSLQPEDFATYYCMQWSGYPYTFGQGTKVEIK
notes: see m39
B20: anti-IL-6 Fab, light chain I27W (Fab, V domains shown)
VH: EVQLVESGGGLVQPGGSLRLSCAASGFTFSPFAMSWVRQAPGKGLEWVAKISPGGSWTYYSDTVTGRFTFSLDTSKSTAYLQMNSLRAEDTAVYYCARQLWGYYALDIWGQGTLVTVSS
VL: DIQLTQSPSSLSASVGDRVTITCSASWSVSYMYWYQQKPGKAPKLLIYDMSNLASGVPSRFSGSGSGTDFTLTISSLQPEDFATYYCMQWSGYPYTFGQGTKVEIK
notes: see m39
B21: anti-IL-6 Fab, light chain L53W (Fab, V domains shown)
VH: EVQLVESGGGLVQPGGSLRLSCAASGFTFSPFAMSWVRQAPGKGLEWVAKISPGGSWTYYSDTVTGRFTFSLDTSKSTAYLQMNSLRAEDTAVYYCARQLWGYYALDIWGQGTLVTVSS
VL: DIQLTQSPSSLSASVGDRVTITCSASISVSYMYWYQQKPGKAPKLLIYDMSNWASGVPSRFSGSGSGTDFTLTISSLQPEDFATYYCMQWSGYPYTFGQGTKVEIK
notes: see m39
B22: anti-IL-6 Fab, light chain M50E (Fab, V domains shown)
VH: EVQLVESGGGLVQPGGSLRLSCAASGFTFSPFAMSWVRQAPGKGLEWVAKISPGGSWTYYSDTVTGRFTFSLDTSKSTAYLQMNSLRAEDTAVYYCARQLWGYYALDIWGQGTLVTVSS
VL: DIQLTQSPSSLSASVGDRVTITCSASISVSYMYWYQQKPGKAPKLLIYDESNLASGVPSRFSGSGSGTDFTLTISSLQPEDFATYYCMQWSGYPYTFGQGTKVEIK
notes: see m39

recombinant human IL-6, sequence (P05231 30-212 limits assumed): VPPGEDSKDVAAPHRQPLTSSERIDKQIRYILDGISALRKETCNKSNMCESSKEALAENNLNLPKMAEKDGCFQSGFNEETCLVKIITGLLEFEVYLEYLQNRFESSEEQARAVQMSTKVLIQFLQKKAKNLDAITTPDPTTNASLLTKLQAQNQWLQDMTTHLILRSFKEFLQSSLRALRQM

The experiment addresses recombinant human IL-6 (human, UniProt P05231 30-212). Kind of experiment: SPR, IL-6 on CM5 chip, Fab lysate, 25 C. (In SPR one partner is held on a chip, and binding of the other changes the refractive index at the surface.)
One may read the koff as the rate constant with which the complex falls apart. For the molecule B1, the koff was 0.00615 s⁻¹.
Take B2: the koff worked out at 0.00525 s⁻¹.
For the molecule B3, the koff was 0.00479 s⁻¹.
Consider B4, for which the koff came out at 0.005 s⁻¹.
With B5 the figure was 0.00489 s⁻¹.
Turning to B6, the koff was 0.00498 s⁻¹.
Turning to B7, the koff was 0.00593 s⁻¹.
With B8 the figure was 0.00555 s⁻¹; with B9, 0.00493 s⁻¹.
Consider B10, for which the koff turned out to be 0.00492 s⁻¹.
Take B11: the koff amounted to 0.00458 s⁻¹.
Consider B12, for which the off-rate constant (koff) is 0.00455 s⁻¹.
B13: the koff came out at 0.00495 s⁻¹.
On to B14, for which the koff is 0.00503 s⁻¹.
Take B15: the koff was determined as 0.00479 s⁻¹.
On to B16, for which the koff was determined as 0.0048 s⁻¹.
For B17, the koff is 0.00498 s⁻¹.
B18: the koff came out at 0.00594 s⁻¹.
For the molecule B19, the koff was determined as 0.00619 s⁻¹.
As to B20, the koff was 0.00569 s⁻¹.
The figure for B21 is 0.00501 s⁻¹; for B22 it is 0.00476 s⁻¹.
